Results from patent CN106146655A (UNIV NANCHANG, dated 2016).
Where no end group is shown, it is not given here.

Biological target: T1, 6×His标签 (组氨酸标签), 人工抗原6×His-OVA (also: covalently coupled to ovalbumin (OVA), chemistry and site not given here)
T1 construct: also called 多组氨酸标签; hexa组氨酸标签
T1 peptide: HHHHHH
Experiment: indirect phage-ELISA of phage-displayed VHH clones after three rounds of panning on 6×His-OVA

B1: 针对His标签的单域重链抗体 (针对组氨酸标签的纳米抗体) (VHH)
VHH: QVQLVESGGGLVQAGGSLRLSCAVSGFTFSANAMSWVRQAPGKGPEWVSSINRGGASAEYADSVKGRFTISRDDAKNTLYLQMNSLKPEDTALYYCARGNYRGSYFNGPRTYWGRGTQVTVSP
notes: From an alpaca (Lama pacos) immune library; also called 抗His标签单域重链抗体
B1: binds.
